# From patent publication EP4603506A1, “NOVEL GLP-1 RECEPTOR ANTAGONIST, AND PHARMACEUTICAL COMPOSITION FOR PREVENTING OR TREATING CONGENITAL […] OR HYPOGLYCEMIA, COMPRISING SAME” (Hanmi Pharm. Co., Ltd., priority 2022, dated 2024)
# Starred links: 1 amine or outer side, 2 acyl side, 3 side chain; linkers in the order of their positions; H or OH if unused. Residues, ends and D or L forms follow the SMILES beside them. Groups on a side chain read outwards from the residue. *: point of attachment. C20 diacid = O=C(O)CCCCCCCCCCCCCCCCCCC(=O)*; C18 diacid = O=C(O)CCCCCCCCCCCCCCCCC(=O)*; γGlu = O=C(O)[C@H](CCC(=O)[*:2])N[*:1]; AEEA = NCCOCCOCC(=O)O
# B1: acylated GLP-1R antagonist analog conjugate (SEQ ID NO: 18) (peptide)
# peptide: Ac-DVSSYLEEEAVRLFIAWLVKGGPSSGAPPPSK([AEEA-AEEA-γGlu-C18 diacid])-NH2
# SMILES: CC[C@H](C)[C@H](NC(=O)[C@H](Cc1ccccc1)NC(=O)[C@H](CC(C)C)NC(=O)[C@H](CCCNC(=N)N)NC(=O)[C@@H](NC(=O)[C@H](C)NC(=O)[C@H](CCC(=O)O)NC(=O)[C@H](CCC(=O)O)NC(=O)[C@H](CCC(=O)O)NC(=O)[C@H](CC(C)C)NC(=O)[C@H](Cc1ccc(O)cc1)NC(=O)[C@H](CO)NC(=O)[C@H](CO)NC(=O)[C@@H](NC(=O)[C@H](CC(=O)O)NC(C)=O)C(C)C)C(C)C)C(=O)N[C@@H](C)C(=O)N[C@@H](Cc1c[nH]c2ccccc12)C(=O)N[C@@H](CC(C)C)C(=O)N[C@H](C(=O)N[C@@H](CCCCN)C(=O)NCC(=O)NCC(=O)N1CCC[C@H]1C(=O)N[C@@H](CO)C(=O)N[C@@H](CO)C(=O)NCC(=O)N[C@@H](C)C(=O)N1CCC[C@H]1C(=O)N1CCC[C@H]1C(=O)N1CCC[C@H]1C(=O)N[C@@H](CO)C(=O)N[C@@H](CCCCNC(=O)COCCOCCNC(=O)COCCOCCNC(=O)CC[C@H](NC(=O)CCCCCCCCCCCCCCCCC(=O)O)C(=O)O)C(N)=O)C(C)C
# B2: acylated GLP-1R antagonist analog conjugate (SEQ ID NO: 20) (peptide)
# peptide: Ac-DVSSYLEEEAVRLFIAWLVKGGPSSGAPPPSK([AEEA-AEEA-γGlu-C20 diacid])-NH2
# SMILES: CC[C@H](C)[C@H](NC(=O)[C@H](Cc1ccccc1)NC(=O)[C@H](CC(C)C)NC(=O)[C@H](CCCNC(=N)N)NC(=O)[C@@H](NC(=O)[C@H](C)NC(=O)[C@H](CCC(=O)O)NC(=O)[C@H](CCC(=O)O)NC(=O)[C@H](CCC(=O)O)NC(=O)[C@H](CC(C)C)NC(=O)[C@H](Cc1ccc(O)cc1)NC(=O)[C@H](CO)NC(=O)[C@H](CO)NC(=O)[C@@H](NC(=O)[C@H](CC(=O)O)NC(C)=O)C(C)C)C(C)C)C(=O)N[C@@H](C)C(=O)N[C@@H](Cc1c[nH]c2ccccc12)C(=O)N[C@@H](CC(C)C)C(=O)N[C@H](C(=O)N[C@@H](CCCCN)C(=O)NCC(=O)NCC(=O)N1CCC[C@H]1C(=O)N[C@@H](CO)C(=O)N[C@@H](CO)C(=O)NCC(=O)N[C@@H](C)C(=O)N1CCC[C@H]1C(=O)N1CCC[C@H]1C(=O)N1CCC[C@H]1C(=O)N[C@@H](CO)C(=O)N[C@@H](CCCCNC(=O)COCCOCCNC(=O)COCCOCCNC(=O)CC[C@H](NC(=O)CCCCCCCCCCCCCCCCCCC(=O)O)C(=O)O)C(N)=O)C(C)C
# B3: GLP-1R antagonist analog (SEQ ID NO: 5) (peptide)
# peptide: DLSSQMEEEAVRLFIEWLKNGGPSSGAPPPS
# modifications: N-terminus acetylated; C-terminal amide
# B4: GLP-1R antagonist analog (SEQ ID NO: 7) (peptide)
# peptide: Ac-TSDVSSYLEEEAVRLFIAWLVKGGPSSGAPPPS-NH2
# B5: GLP-1R antagonist analog (SEQ ID NO: 8) (peptide)
# peptide: Ac-DVSSYLEEEAVRLFIAWLVKGGPSSGAPPPS-NH2
# Molecular target: human GLP-1R (hGLP-1R) (Homo sapiens, UniProt P43220)
# Experiment: In vitro cell activity: cAMP inhibition (LANCE Ultra cAMP kit) in CHO cells expressing human GLP-1R, with GLP-1 added
# Format: cell-based
# Conditions: relative activity from IC50 of cAMP inhibition; 0.1 nM GLP-1 added; comparative substance exendin-3 (9-39) amide = 100
# Procedure: The human GLP-1R-expressed CHO cells were cultured in a 384-well plate for 24 hours. Thereafter, the culture was removed, and 10 µL of each serially diluted substance was added to the plate, followed by incubation at room temperature for 30 minutes. Then, 5 µL of Eu-cAMP tracer was added, and then 5 µL of a buffer containing cAMP antibodies was added, followed by incubation at room temperature for 60 minutes. […]
# Sequence of human GLP-1R (hGLP-1R) (P43220 24-463): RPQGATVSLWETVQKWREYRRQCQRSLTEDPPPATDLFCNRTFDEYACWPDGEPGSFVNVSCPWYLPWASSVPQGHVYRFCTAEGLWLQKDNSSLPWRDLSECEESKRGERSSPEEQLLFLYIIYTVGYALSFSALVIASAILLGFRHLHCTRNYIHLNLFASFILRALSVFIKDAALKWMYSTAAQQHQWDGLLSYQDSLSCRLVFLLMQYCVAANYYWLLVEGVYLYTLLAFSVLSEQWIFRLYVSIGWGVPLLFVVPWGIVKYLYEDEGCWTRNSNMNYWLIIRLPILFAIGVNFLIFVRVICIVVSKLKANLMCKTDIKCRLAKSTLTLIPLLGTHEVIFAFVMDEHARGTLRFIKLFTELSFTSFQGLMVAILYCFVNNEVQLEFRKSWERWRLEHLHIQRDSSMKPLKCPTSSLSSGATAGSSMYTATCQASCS
row,Molecule,In vitro activity compared with comparative substance (%)
1,CC[C@H](C)[C@H](NC(=O)[C@H](Cc1ccccc1)NC(=O)[C@H](CC(C)C)NC(=O)[C@H](CCCNC(=N)N)NC(=O)[C@@H](NC(=O)[C@H](C)NC(=O)[C@H](CCC(=O)O)NC(=O)[C@H](CCC(=O)O)NC(=O)[C@H](CCC(=O)O)NC(=O)[C@H](CC(C)C)NC(=O)[C@H](Cc1ccc(O)cc1)NC(=O)[C@H](CO)NC(=O)[C@H](CO)NC(=O)[C@@H](NC(=O)[C@H](CC(=O)O)NC(C)=O)C(C)C)C(C)C)C(=O)N[C@@H](C)C(=O)N[C@@H](Cc1c[nH]c2ccccc12)C(=O)N[C@@H](CC(C)C)C(=O)N[C@H](C(=O)N[C@@H](CCCCN)C(=O)NCC(=O)NCC(=O)N1CCC[C@H]1C(=O)N[C@@H](CO)C(=O)N[C@@H](CO)C(=O)NCC(=O)N[C@@H](C)C(=O)N1CCC[C@H]1C(=O)N1CCC[C@H]1C(=O)N1CCC[C@H]1C(=O)N[C@@H](CO)C(=O)N[C@@H](CS)C(N)=O)C(C)C [SEQ ID NO: 12] (Ac-DVSSYLEEEAVRLFIAWLVKGGPSSGAPPPSC-NH2),189.3
2,CC[C@H](C)[C@H](NC(=O)[C@H](Cc1ccccc1)NC(=O)[C@H](CCC(=O)O)NC(=O)[C@H](CCCNC(=N)N)NC(=O)[C@@H](NC(=O)[C@H](C)NC(=O)[C@H](CCC(N)=O)NC(=O)[C@H](CCC(=O)O)NC(=O)[C@H](CCC(=O)O)NC(=O)[C@H](CC(C)C)NC(=O)[C@H](Cc1ccc(O)cc1)NC(=O)[C@H](CO)NC(=O)[C@H](CO)NC(=O)[C@@H](NC(=O)[C@H](CC(=O)O)NC(C)=O)C(C)C)C(C)C)C(=O)N[C@@H](C)C(=O)N[C@@H](Cc1c[nH]c2ccccc12)C(=O)N[C@@H](CC(C)C)C(=O)N[C@H](C(=O)N[C@@H](CCCCN)C(=O)NCC(=O)NCC(=O)N1CCC[C@H]1C(=O)N[C@@H](CO)C(=O)N[C@@H](CO)C(=O)NCC(=O)N[C@@H](C)C(=O)N1CCC[C@H]1C(=O)N1CCC[C@H]1C(=O)N1CCC[C@H]1C(=O)N[C@@H](CO)C(N)=O)C(C)C [SEQ ID NO: 9] (Ac-DVSSYLEEQAVREFIAWLVKGGPSSGAPPPS-NH2),188.6
3,CC[C@H](C)[C@H](NC(=O)[C@H](Cc1ccccc1)NC(=O)[C@H](CC(C)C)NC(=O)[C@H](CCCNC(=N)N)NC(=O)[C@@H](NC(=O)[C@H](C)NC(=O)[C@H](CCC(=O)O)NC(=O)[C@H](CCC(=O)O)NC(=O)[C@H](CCC(=O)O)NC(=O)[C@H](CC(C)C)NC(=O)[C@H](Cc1ccc(O)cc1)NC(=O)[C@H](CO)NC(=O)[C@H](CO)NC(=O)[C@@H](NC(=O)[C@H](CC(=O)O)NC(=O)[C@H](CO)NC(=O)[C@@H](NC(C)=O)[C@@H](C)O)C(C)C)C(C)C)C(=O)N[C@@H](C)C(=O)N[C@@H](Cc1c[nH]c2ccccc12)C(=O)N[C@@H](CC(C)C)C(=O)N[C@H](C(=O)N[C@@H](CCCCN)C(=O)NCC(=O)NCC(=O)N1CCC[C@H]1C(=O)N[C@@H](CO)C(=O)N[C@@H](CO)C(=O)NCC(=O)N[C@@H](C)C(=O)N1CCC[C@H]1C(=O)N1CCC[C@H]1C(=O)N1CCC[C@H]1C(=O)N[C@@H](CO)C(N)=O)C(C)C [SEQ ID NO: 7] (Ac-TSDVSSYLEEEAVRLFIAWLVKGGPSSGAPPPS-NH2),195.5
4,CC[C@H](C)[C@H](NC(=O)[C@H](Cc1ccccc1)NC(=O)[C@H](CC(C)C)NC(=O)[C@H](CCCNC(=N)N)NC(=O)[C@H](C)NC(=O)[C@H](C)NC(=O)[C@H](CCC(=O)O)NC(=O)[C@H](CCC(=O)O)NC(=O)[C@H](CCC(=O)O)NC(=O)[C@H](CC(C)C)NC(=O)[C@H](Cc1ccc(O)cc1)NC(=O)[C@H](CO)NC(=O)[C@H](CO)NC(=O)[C@H](CC(C)C)NC(=O)[C@H](CC(=O)O)NC(C)=O)C(=O)N[C@@H](CCC(=O)O)C(=O)N[C@@H](Cc1c[nH]c2ccccc12)C(=O)N[C@@H](CC(C)C)C(=O)N[C@@H](CCCCNC(=O)COCCOCCNC(=O)COCCOCCNC(=O)CC[C@H](NC(=O)CCCCCCCCCCCCCCCCC(=O)O)C(=O)O)C(=O)N[C@@H](CC(N)=O)C(=O)NCC(=O)NCC(=O)N1CCC[C@H]1C(=O)N[C@@H](CO)C(=O)N[C@@H](CO)C(=O)NCC(=O)N[C@@H](C)C(=O)N1CCC[C@H]1C(=O)N1CCC[C@H]1C(=O)N1CCC[C@H]1C(=O)N[C@@H](CO)C(N)=O [SEQ ID NO: 14],1.7

# Molecular target: human GLP-1 receptor (GLP-1R) (human, UniProt P43220 24-463)
# Experiment: cell-based or functional assay
# Conditions: not given
row,Molecule,In vitro activity compared with comparative substance (%); IC50 of cAMP inhibition in hGLP-1R CHO cells with 0.1 nM GLP-1 [%]
1,B1,19.8
2,B2,15.1
3,B3,85
4,B4,196
5,B5,238
